In paper PMC11723922 one finds Kd data, which are given here for two substances.

For orientation: Kd means a measure of binding affinity in units of concentration.

Experiment in all cases: SPR; BIAcore X100; biotinylated Avi-tagged TβRI or TβRII captured on neutravidin-coupled CM-5 chip (max 150 RU); full-length TGM injected as twofold dilution series; HBS-EP, 25 mM HEPES, 150 mM NaCl, 0.005% P20, pH 7.4; 100 µL/min; 1:1 kinetic model
A general note: Surface plasmon resonance follows binding to a sensor surface in real time, without labels.

For assay [1], the target named is Biotinylated Avi-tagged human TβRI extracellular domain (human) (UniProt P36897).
Sequence of Biotinylated Avi-tagged human TβRI extracellular domain (human) (P36897 34-126): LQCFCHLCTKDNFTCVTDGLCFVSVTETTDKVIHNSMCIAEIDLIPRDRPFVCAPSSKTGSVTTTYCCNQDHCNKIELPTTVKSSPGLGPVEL
The target of assay [2] is Biotinylated Avi-tagged human TβRII extracellular domain (human) (UniProt P37173).
Sequence of Biotinylated Avi-tagged human TβRII extracellular domain (human) (P37173 23-166): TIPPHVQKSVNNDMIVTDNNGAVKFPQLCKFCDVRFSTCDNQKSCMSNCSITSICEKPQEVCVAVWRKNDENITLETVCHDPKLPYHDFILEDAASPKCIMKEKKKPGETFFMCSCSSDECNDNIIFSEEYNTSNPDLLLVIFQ
Assay [3] has as its target Biotinylated Avi-tagged human TβRI extracellular domain (human) (UniProt P36897). The source holds these as a separate data set.

Read-outs that look alike come from different tables or passages of the source.

In the case of “TGM1 full-length (D1-5), recombinant (natural protein)”, in assay [1], the Kd came out at 90 nM.
Take “TGM4 full-length (D1-5), recombinant (natural protein)”: the Kd was 5 nM in assay [1], 116000 nM in assay [2] and 3 to 5 nM in assay [3].
